Data on one molecule can be found in patent US20210261626A1 (DONALDSON, published 2021).

The target of the experiment is human serum albumin (human, UniProt P02768 25-609). Nature of the experiment: phase separation pull-down with 0.6 M NaCl and centrifugation, supernatant and pellet on SDS-PAGE.
Sequence of human serum albumin (P02768 25-609 limits assumed): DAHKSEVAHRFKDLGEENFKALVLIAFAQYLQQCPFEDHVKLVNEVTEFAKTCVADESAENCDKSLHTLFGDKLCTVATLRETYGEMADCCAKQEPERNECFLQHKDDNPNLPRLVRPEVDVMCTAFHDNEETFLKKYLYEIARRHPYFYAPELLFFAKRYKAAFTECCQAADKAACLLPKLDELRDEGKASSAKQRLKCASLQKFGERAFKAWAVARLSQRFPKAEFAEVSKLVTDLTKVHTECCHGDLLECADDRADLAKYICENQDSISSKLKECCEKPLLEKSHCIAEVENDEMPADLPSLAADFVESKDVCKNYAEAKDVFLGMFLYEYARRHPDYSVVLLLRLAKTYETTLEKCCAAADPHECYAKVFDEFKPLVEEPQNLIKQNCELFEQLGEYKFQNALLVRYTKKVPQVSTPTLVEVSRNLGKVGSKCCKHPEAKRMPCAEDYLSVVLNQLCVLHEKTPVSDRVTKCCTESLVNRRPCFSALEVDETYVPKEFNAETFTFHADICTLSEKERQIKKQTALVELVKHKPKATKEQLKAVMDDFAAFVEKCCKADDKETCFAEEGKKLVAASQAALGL

B1: ELP1,80-CapG (designed binder)
chain: MSKGPGVGVPGLGVPGVGVPGLGVPGVGVPGVGVPGLGVPGVGVPGLGVPGVGVPVGVPGLGVPGVGVPGLGVPGVGVPGVGVPGLGVPGVGVPGLGVPGVGVPVGVPGLGVPGVGVPGLGVPGVGVPGVGVPGLGVPGVGVPGLGVPGVGVPVGVPGLGVPGVGVPGLGVPGVGVPGVGVPGLGVPGVGVPGLGVPGVGVPVGVPGLGVPGVGVPGLGVPGVGVPGVGVPGLGVPGVGVPGLGVPGVGVPVGVPGLGVPGVGVPGLGVPGVGVPGVGVPGLGVPGVGVPGLGVPGVGVPVGVPGLGVPGVGVPGLGVPGVGVPGVGVPGLGVPGVGVPGLGVPGVGVPVGVPGLGVPGVGVPGLGVPGVGVPGVGVPGLGVPGVGVPGLGVPGVGVPGTYKLILNGKTLKGETTTEAVDAATAEKVFKQYANDNGVDGEWTYDDATKTFTVTEG
notes: Expressed in E. coli; also called fusion comprised of an optimal ELP and a Protein G domain
As to B1, the binding result is “no binding”.
